According to the nanobody polyreactivity screen of Harvey et al. (2022):

test: yeast display, Sf9 membrane polyspecificity reagent, FACS + sequencing; frameworks hold sequencing errors
How it was run: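 Polyreactivity labels are assigned by the sorting gate from which each nanobody was recovered. The gates were low and high (top ~1%), set on anti-HA fluorescence for expression and streptavidin fluorescence for reagent binding. Before sorting, galactose-induced (36–48 hours) yeast display cells were stained for 1 hour at 4 °C with 10% biotinylated, detergent-solubilized Sf9 membrane reagent.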

Sequence | polyreactivity (PSR sort gate)
QVQLVESGGGLVQAGGSLRLSSAASGSTFQFYAMGWYRQAPGKERELVADITSGDDTNYADSVKGRFTISRDNAKNTVYLQMNSLKPEDTAVYYCAVEYILFYTRVRSYWFDYWGQGTQVTVSS | low polyreactivity
QVQLVESGVGLVQAGGSLRLSCAASGSIFSPNAMVWSRQAPGKERELVAAITWSGDSTYYADSVKGRFTISRDNAKNTVYLQINSLKREDTEVYYCAADFTYQGSSANDYWGQGSQVTVSS | low polyreactivity
QVQLVESGGGLVQAGGSLRLSCAASGLIFPVYAMGWYRQAPGKEREFVASIWRGGTTYYADSVKGRFTISRDNAKNTVYLQMNSLKPEDTAVYYCAARYYPRGLVFPFTKYDYWGQGTQVTVSS | high polyreactivity
QVQLVESGGGLVQAGGSLRLSCAASGGIFYSYAMGWYRQAPGKERELVAAISGRGGSTYYADSVKGRFTISRDNAKNTVYLQMNSLKPEDTAVYYCNALGSQRYDYWGQGTQVTVSS | high polyreactivity
QVQLEESGGGLVQAGGSLRLSCAASGGIFWYNAMGWYRQAPGKERELVADISSSGITYYADSVKGRFTISRDNAKNTVYLQMNSLKPEDTAVYYCAADSTTRPGLRVYDDYDYWGQGTQVTVSS | low polyreactivity
QVQLVESGGGLVQAGGSLRLSCAASGSILQRNAMGWYRQAPGKERELVAAISSSGDNTYYADSVKGRITISRDNAKNTVYLQMNSLKPEDTAVYYCATDADIYFQEYDYWGQGTQVTVSS | low polyreactivity
QVQLVESGGGLVQAGGSLRLSCAASGSIFGVNAMGWYRQAPGKERELVATITWRTGSTYYADSVKGRFTISRDNAKNTVYLQMNSLKPEDTAVYYCAAEDYTEFDYWGQGTQVTVSS | low polyreactivity
RVQLVESGGGLVQAGGSHRLSCAASGRIFKNYAIGWYRQAPGKQRELVASITIGSTTYAESEKGRFTISRDNAKNTVYLKMNSLKREDTAVYYCAARRPRGFQGPNPWGYYYWGQGTQVTVSS | high polyreactivity
QVQLVESGGGLVQAGGSLRLRCAASGSTFFRYAMGWYRPAPGKERELLAAITSGGITNYADSVKGRFTISRDNAKNTVYLQMHSLKPEDTAVYYCAKRRTYPGKGRFNYWGQGTQVTVSS | low polyreactivity
QVQLVESGGGLVQAGGSLRLSCAASGRTFSQYAMGWYRQAPGKERELVAPISWSGGSTYYADSVKGRFTISRDNAKNTVDLQMNSLKPEDTAVFYCAAVGKGSSRSSYPVLYDYWGQGTQVTVSS | low polyreactivity
QVQLVESRGALVQAGGSLRLSCAASGLILWVNAMGWNRQAPGKERELVAAISWSSGSTYYADSVKGRFTISRDNAKNTVYLQMNSLKPEASAVYYCAASVRRTGSICHYYYSGQGTQVTVSS | high polyreactivity
QVQLVESGGGLVQAGGSLRLSCAASGFILYFKAMGWYRQAHGKERELVAAITSDGGSTYYADSLKGRFTISRDNAKNTVYLQMNSLKPEDTAVYYCAADASTWYTEEYWGQGTQVTVSS | low polyreactivity
QVQLVESGGGLVQAGGSLRLSCAASGRTFTQYAMGWYRQAPGKEREFVAAINFSGSRTYYADSVKGRFTISRDNAKNTVYLQMNSLKPEDTAVYYCNKRGSVYTSSQRQHDYWGQGTQVTVSS | low polyreactivity
QVQLVESCGGLVQAGGSLRLSCAASVSTFLFYAMGWDRQAPRKERELVAAITSGDSTNYADSVKGRFTISRDNAKNTVYLQMNSLKPEDTAVYYCAASRFGAYYWGQGTQVTVSS | high polyreactivity
QVQLVESGGGLVQAGGSLRLSCAASGSTFEPYVMGWYRQAPGKERELVAAITYSGGRTYYADSVKGRFTISRDNAKNTVYLQMNSLKPEDTAVYYCAKVDRSYGYSRYWFKYGYWGQGTQVTVSS | low polyreactivity
QVQLGDSGGGLVQAGGRLGLSCAASGSTFGRYAMGWYRPAPGKERELVAAISSSGGRTYYADSVKGRFTISRDNAKNTVYLQMNSLKPEDTAVYYCASDARFRQKYEYWGQGTQVTVSS | high polyreactivity
QVQLVESGGGLVQAGGSLRLSCAASGSIFWYYAMGWYRQAPGKERELVAAISSGGSTYYADSVKGRYTISRDNAKNTVYLQMNSLKPEDTAVYYCAAGAFGQILNYWGQGTQVTVSS | high polyreactivity
QVHLVESGGGLVQAGGSLRLSCAASGFIFNYYAMGWYRQAPGKERELVAAISWRGTSTYYADSVKGRFTISRDNAKNTVYLQMNSLKPEDNAVYYCAAAKYPYVRRAWNFVGYDYWGQGTQVTVSS | high polyreactivity
QVQLVESGGGLVQAGGSLRLSCAASGSTVGANAMGWYRQAPGKERELVATISSGGRTYYADSVKGRFTISRDNAKNTVYLQMNSLKPEDTAVYYCNAGADYTYVYISVYVLYDYWGQGTQVTVSS | low polyreactivity
QVQLVESGGGLVQAGGSLRLSCAASGRTFARYDKGWYRQAPGKERELVAGINGDGGSTNYADSVKGRFTISRDNAKNTVYLQMNSLKPEDTAVFYCNVDQEDRKLHVSIKQLSDHWGQGTQVTVSS | low polyreactivity
QVQREESGGGLVQAGGSLRLSCAASGITFKWYAMGWYRQAPGKEREFVAIISTRGGSTYYADSVKGRFTISRDNAKNTVYLQMNSLKPVDTAVYYCNAVRSRVVHRRGDFDYWGQGTQVTVSS | high polyreactivity

Sequence | polyreactivity (PSR sort gate)
QVQLVESVGGLVQAGGSLRLSCPASGSIFYANAMGGYRQAPGKERELVATISTGGGRTYYADSVKGRFTISRDKAKNTVYLQMNSLKAEDTAVYYCNATRNYARVRYYYWGKGTQVTVSS | high polyreactivity
QVQLVESGGGLVQAGGSLRLSCAASGRTFSRYVMGWYRQAPGKERELVAGISQSGARTTYADSVKGRFTISRDNAKNTVYLQMNSLKPEDTAVYYCAAVGYGIRSYYSYDYWGQGTQVTVSS | high polyreactivity
QVQLVESGGGLVQAGGSLRLSCAASGLTFPQYAMGWYRQAPGKERELVAAISKTGGSTYYADSVKGRFTISRDNAKNTVYLQMNSLKPEDTAVYYCAAVESGDRGQRINYWGQGTQVTVAS | high polyreactivity
QVQLVESGGGLVQAGGSLRLSCAASGSTFLYYAMGWYRQAPGKERELVARITTRVGRTYYADSVKGRFTISRDNAKNTVYLQMNSLKPEDTAVYYCAAYPDYSYYYWGQGTQVTVSS | high polyreactivity
QVQLVESGGGIVQAGRSLRLSCAASGFTFYWYAMGWYRQAPGKERELVAAISWSGGSTYYADSVKGRFTISRDNETNTVYLQMYSLKPEDTAVYYCAADNYFFGDEDYWGQGTQVTVSS | high polyreactivity
QVQLVESGGGIVQAGGSLRLSCAASGFTFSNNVMGGYRQAPGKERELVAAITWSGDGTYYADSVKGRFTISRDNAKNTVYLQMNSLKPEDTAVYYCNARYGKEYDYWGQGTQVTVSS | low polyreactivity
QVQLVESGGGLVQEGGSLRISCAASGRIFYYYVMGGYRQAPGKERELVAGITSRGRTYYADSVKGRFTISRDNAKNTVYLQMNSLKPEVTAVYDCNKVGATWRQWFGYWGQGTQVTVSS | high polyreactivity
QVQLVESGAGLVQAGGSLRLSCAASGRTFRINTMGWSIQAPGKERELVATITGSGGSTYYADSVKGRFTISRDNAKNTVYLQMNSLKPEDTAVYYCAAVGDQNEYDYWGQGTQVTVSS | low polyreactivity
QVQLEESGGGLVQAGGSLRLSCAASGSIIAGYAMGWYRQAPGKERELVAAISQRGTSTYYADSVKGRFTISRDNAKNTVYLQMNSLKPEDTAVYYCAARVVSRMDYWGQGTQVTVSS | high polyreactivity
QVQLVESGGGLVQAGGSLRLSCAASGSTFTDYDMGWYRQAPGTERELVAAITSGCSTNYADSVKGRFTISRDNAKNTVYLQMNSLKPEDTAVYYCAAADADRKYDYWGQGTQVTVTS | low polyreactivity
QVQLLESGGGLVQAGGTLRLSCAASGSIIGRNAMGWYRQAPGKERELVAAITWRTGSTFYADSVKGRFTISRDNAKNTVYLQMNSLKPEDTAVYYCNAAGPAYSYYHWLWGDYNSWRQGTQVTVSS | low polyreactivity
QVQLVESGGGLVQAGGSLRLSCAASGLTFYVYAMGWYRQAPGKEREFVAAISWSGTSTSYADSVKGRFTISRDNAKNTVYLQMNSLKPEDTAVYYCAADSFASVYFGTGYDYWGQGTQVTVSS | low polyreactivity
QVQLVESGGGLVQAGGILRLSCAASGRIFKTYAMGWYRQAPGKERELVAAITASGGRTYYADSVKGRFTISRDNAKNTVYLQMNSLKPEDTAVYYCAADSGNEYDYWGQGTQVTVSS | low polyreactivity
QVQLVESGGGLVQAGGSLRLSCAASGIIFRRYARGWYRQAPGKERELVAAITRGGITYYADSVKGRFTISRDNAKNTVYLQMNSLKPEDTAVYYCAATYSGTYSLGGGYDYWGQGTQVTVSS | low polyreactivity
QVQLVESGGGLVQAGGSLRLSCAASGSIFEYNAMGWYRPAPGKERELVAAISWSSGTTYYADSVKGRFTISLDNAKNSVYLQMNSLKPEDTAVYYCNAGRYGKDSDYWGQGTQVTVSS | low polyreactivity
QVQLVESGGGLDQAGGSLSLSTAASGFTFYVKAMGLYRQAPGKEREWVAAISSSGTRTYYADSVKGRFTISRDNAKNSVYFQMKCLKPEYTAVYFCAARGQAYSGDRMYYWGQGTQVTVSS | high polyreactivity
QVQLQERGGGLVQAGGSLRQSCAAIGYIFPYYSMGWYRQATGKERGLVACIAAGTTTNYADSVKGRFTISRDNAINTVYLQMNSLKPEDAAVYYCAALNAFKTGHWYWGQGTQVTVSS | low polyreactivity
QVQLVESGVRLVQAGGSLRLSCAASGFNFRRYAMGWYRPAPGKERELVAAISWRSGSTYYADSVKGRFTISRDNAKNTVYLQMNSLKPEDTAVYYCAAKDQATYQLNYWGQGTQVTVSS | high polyreactivity
QVQLVESGGGLVQARGSLRLSCAASGSIFPNYAMGWYRQAPGKERELVAAISSSGGRTYYADSVKGRFTSSRDNAKNTVYLQMNRLKPEDTAVYYCAVRGYWGEGTQVTVSS | low polyreactivity
QVQLGESGGGLVQAGGSLRLSCAASGSILTPYSMGWYRQAPGKERELDAAITFRGGSTYYADSVKGRFTISRDNAKNTVYLQMNSLKPEDTAVYYCAAGWYWSYWDPYDYWGQGTQVTVSS | high polyreactivity
